Experimental data as given in EP4545563A1, “ANTIBODIES TARGETING ITGA2 AND ANTIBODY-DRUG […]” (Foreseen Technology (Beijing) Co., Ltd., priority 2022, dated 2024).

Biological target: ITGA2 protein on the surface of human tumor cells (HuCCT1, A431) (human) (UniProt P17301)
Assay: cell-based or functional assay

Sequence of ITGA2 protein on the surface of human tumor cells (HuCCT1, A431) (human) (P17301 30-1181): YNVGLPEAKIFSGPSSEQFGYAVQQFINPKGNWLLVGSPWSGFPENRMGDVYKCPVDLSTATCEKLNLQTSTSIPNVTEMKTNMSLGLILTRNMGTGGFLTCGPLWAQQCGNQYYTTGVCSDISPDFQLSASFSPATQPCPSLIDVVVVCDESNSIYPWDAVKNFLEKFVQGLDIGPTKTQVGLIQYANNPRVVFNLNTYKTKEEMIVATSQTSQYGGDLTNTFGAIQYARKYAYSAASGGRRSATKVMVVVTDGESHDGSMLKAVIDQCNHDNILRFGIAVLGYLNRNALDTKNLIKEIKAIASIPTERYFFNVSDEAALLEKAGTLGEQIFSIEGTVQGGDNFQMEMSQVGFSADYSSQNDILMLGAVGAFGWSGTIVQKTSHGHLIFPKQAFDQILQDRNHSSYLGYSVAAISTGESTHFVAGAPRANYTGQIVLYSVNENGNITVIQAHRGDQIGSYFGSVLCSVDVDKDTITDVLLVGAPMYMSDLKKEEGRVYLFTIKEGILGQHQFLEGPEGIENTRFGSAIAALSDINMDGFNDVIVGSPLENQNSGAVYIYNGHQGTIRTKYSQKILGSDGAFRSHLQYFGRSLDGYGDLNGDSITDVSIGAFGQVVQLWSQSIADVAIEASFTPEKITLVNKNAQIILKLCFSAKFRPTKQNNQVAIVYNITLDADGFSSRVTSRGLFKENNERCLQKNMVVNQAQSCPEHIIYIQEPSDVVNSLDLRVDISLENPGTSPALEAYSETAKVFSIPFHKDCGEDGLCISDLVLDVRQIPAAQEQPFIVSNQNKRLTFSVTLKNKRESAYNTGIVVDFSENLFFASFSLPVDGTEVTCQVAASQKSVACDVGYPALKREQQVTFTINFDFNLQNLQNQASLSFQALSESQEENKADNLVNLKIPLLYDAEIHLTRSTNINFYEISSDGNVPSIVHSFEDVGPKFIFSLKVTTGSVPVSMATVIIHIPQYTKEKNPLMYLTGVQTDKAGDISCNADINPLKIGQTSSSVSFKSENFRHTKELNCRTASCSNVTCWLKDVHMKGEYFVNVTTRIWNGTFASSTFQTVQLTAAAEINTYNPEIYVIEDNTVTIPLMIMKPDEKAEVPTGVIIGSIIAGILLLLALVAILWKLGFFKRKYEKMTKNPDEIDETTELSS

Substance: Vatelizumab-ve-MMAE (antibody)
- A431 cell killing IC50: 0.08 nM
- HuCC-T1 cell killing IC50: 0.89 nM
